# Test results published in patent US8110387B2, “Polypeptide having NADH dependent HMF reductase activity” (C5 Ligno Technologies Lund AB, priority 2007, dated 2012).
# Substitutions are numbered along the chain they refer to. Names and notes keep the numbering of the source.
# B1: S110P: native Adh1 with the single substitution S110P (protein, listed as Saccharomyces cerevisiae)
# chain: MSIPETQKGVIFYESHGKLEYKDIPVPKPKANELLINVKYSGVCHTDLHAWHGDWPLPTKLPLAGGHEGAGVVVGMGENVKGWKIGDYAGIKWLNGSCMACEYCELGNEPNCPHADSSGYTHDGSFQQYATADAVQAAHIPQGTDLAEVAPVLCAGITVYKALKSANLMAGHWVAISGAAGGLGSLAVQYAKAMGYRVLGIDGGEGKEELFRSIGGEVFIDFTKEKDIVGAVLKATDGGAHGVINVSVSEAAIEASTRYVRANGTTVLVGMPAGAKCCSDVFNQVVKSISIVGSYVGNRADTREALDFFARGLVKSPIKVVGLSTLPEIYEKMEKGQIVGRYVVDTSK
# B2: Y295C: native Adh1 with the single substitution Y295C (protein, listed as Saccharomyces cerevisiae)
# chain: B1 chain with P110S, Y295C
# B3: V59T-Q148E-I152V-L117S-Y295C: mutated Adh1 from TMB3000 with reverse mutation at position 110 (protein, UniProt P00330 2-348, looked up, variant V59T Q148E I152V L117S Y295C)
# Alcohol dehydrogenase 1: SIPETQKGVIFYESHGKLEYKDIPVPKPKANELLINVKYSGVCHTDLHAWHGDWPLPTKLPLVGGHEGAGVVVGMGENVKGWKIGDYAGIKWLNGSCMACEYCELGNESNCPHADSSGYTHDGSFQQYATADAVQAAHIPQGTDLAEVAPVLCAGITVYKALKSANLMAGHWVAISGAAGGLGSLAVQYAKAMGYRVLGIDGGEGKEELFRSIGGEVFIDFTKEKDIVGAVLKATDGGAHGVINVSVSEAAIEASTRYVRANGTTVLVGMPAGAKCCSDVFNQVVKSISIVGSCVGNRADTREALDFFARGLVKSPIKVVGLSTLPEIYEKMEKGQIVGRYVVDTSK
# B4: V59T-Q148E-I152V-S110P-L117S: mutated Adh1 from TMB3000 with reverse mutation at position 295 (protein, UniProt P00330 2-348, looked up, variant V59T Q148E I152V S110P L117S)
# Alcohol dehydrogenase 1: B3 Alcohol dehydrogenase 1 with S109P, C294Y
# B5: BY4741-control: native S. cerevisiae Adh1 (V59, S110, L117, Q148, I152, Y295) overexpressed in ΔAdh1 strain BY4741 (protein, UniProt P00330 2-348, looked up)
# Alcohol dehydrogenase 1: B3 Alcohol dehydrogenase 1 with T58V, S116L, E147Q, V151I, C294Y
# Tests used:
# Assay type in all cases: biochemical, Saccharomyces cerevisiae
# [1] = In vitro NADH-dependent furan reductase activity of ADH1 mutants in cell extracts, furfural as substrate; set-up: key: —: no detectable activity; detectable activity (ranging from moderate (+) to very high (+++)); detectable activity (ranging from moderate (+) to very high (+++)); detectable activity (ranging from moderate (+) to very high (+++)); settings: 10 mM furfural, 200 μM NADH, cell extract of CEN.PK 113-5D transformant, pH 6.7, 30° C.
# Experimental: (§1) Plasmid carrying individual or combined mutations within the ADH1 gene were introduced in strain CEN.PK 113-5D by transformation according to the lithium acetate method (Gietz et al., 1992, Improved method for high efficiency transformation of intact yeast cells. Nucleic Acids Research 20:1425). Selection was performed on SD plates without uracil. The resulting strains were grown aerobically at 30° C. in 25 mL SD medium without uracil (in 250 mL baffled flask). Cell extracts were prepared by harvesting the cells at OD620 7.5-8.5, re-suspending the cells in Y-PER solution (Pierce, Rockford, Ill., USA), 1 mL/0.6gr cells, shaking at room temperature for 50 min. The supernatant was collected after centrifugation for 20 min at 15000 g. In vitro NADH-dependent furan reductase activity was measured by following the oxidation of NADH at 340 nm in a Hitachi U-2000 spectrophotometer (Hitachi, Tokyo, Japan). The assay consisted of 10 mM furaldehyde (HMF or furfural), 200 μM NADH and cell extract in 100 mM phosphate buffer (pH 6.7) at 30° C.
# [2] = In vitro NADH-dependent furan reductase activity of ADH1 mutants in cell extracts, HMF as substrate; set-up: key: —: no detectable activity; detectable activity (ranging from moderate (+) to very high (+++)); detectable activity (ranging from moderate (+) to very high (+++)); detectable activity (ranging from moderate (+) to very high (+++)); settings: 10 mM HMF, 200 μM NADH, cell extract of CEN.PK 113-5D transformant, pH 6.7, 30° C.
# Experimental: as §1
# [3] = Enzyme kinetics of Adh1 variants, NADH-dependent reduction of furfural
# Experimental: (§2) Cells were grown aerobically at 30° C. in 25 mL SD medium without uracil (in 250 mL baffled flask). Cell extracts were prepared by harvesting the cells at OD620 7.5-8.5, re-suspending the cells in Y-PER solution (Pierce, Rockford, Ill., USA), 1 mL/0.6 gr cells, shaking at room temperature for 50 min. The supernatant was collected after centrifugation for 20 min at 15000 g.
# (§3) In vitro NADH-dependent furan reductase activity was measured by following the oxidation of NADH at 340 nm in a Hitachi U-2000 spectrophotometer (Hitachi, Tokyo, Japan). NADH-dependent aldehyde reduction was determined (Wahlbom and Hahn-Hägerdal, 2002) with 200 μM NADH. Reduction kinetics were determined for acetaldehyde (range […]-100 mM), furfural (100 μM-20 mM) and HMF (500 μM-20 mM). For native Adh1 furfural was used up to 40 mM.
# (§4) Modeling was performed according to the Michaelis-Menten equation with the addition of a substrate inhibition constant: V=(Vmax·[S])/(Km+[S]+[S]2/KI), V—velocity, Vmax—maximal velocity, Km—affinity constant, Ki—substrate inhibition constant, and [S]—substrate concentration. Parameter value estimation was according to the least square method, using the solver function in Microsoft® Excel 2002. HMF activity parameters of strain BY474-ADH1-S117L were estimated without the substrate inhibition constant due to a clear discrepancy of the substrate inhibition model with actual data.
# [4] = Enzyme kinetics of Adh1 variants, NADH-dependent reduction of acetaldehyde
# Experimental: as §2, §3, §4
# [5] = 200 μM NADH, cell extract of BY4741
molecule,measurement,setting,value
B1,NADH-dependent Activity Furfural Reductase,[1],++
B2,NADH-dependent Activity HMF reductase,[2],+
same,NADH-dependent Activity Furfural Reductase,[1],+++
B3,NADH-dependent Activity HMF reductase,[2],+
same,NADH-dependent Activity Furfural Reductase,[1],+
B4,NADH-dependent Activity Furfural Reductase,[1],+
B5,[S]Vmax - substrate concentration at observed Vmax,[3],30 mM
same,Ki (substrate inhibition constant),[3]; [5],1363 mM
same,obsVmax (observed Vmax),[3]; substrate furfural,4345 mU/mg
same,Km,"[3]; substrate furfural, 200 μM NADH, cell extract of BY4741",18.8 mM
same,Vmax,"[3]; substrate furfural, 200 μM NADH, cell extract of BY4741, model with substrate inhibition",6530 (mU)/mg
same,[S]Vmax - substrate concentration at observed Vmax,[4],1 mM
same,Ki (substrate inhibition constant),[4]; [5],12.5326 mM
same,obsVmax (observed Vmax),[4]; substrate acetaldehyde,35300 mU/mg
same,Km,"[4]; substrate acetaldehyde, 200 μM NADH, cell extract of BY4741",0.217 mM
same,Vmax,"[4]; substrate acetaldehyde, 200 μM NADH, cell extract of BY4741, model with substrate inhibition",45070 (mU)/mg
